The nature of test [1]: Aminotransferase activity, reverse direction (7-aminoheptanoate to 7-oxoheptanoate), L-alanine formation by RP-HPLC. In kind it is biochemical. As to conditions: cell free extract, 10 mM substrate, 25° C., 4 h, against empty vector control, FIG. 48. The protocol: (§1) A sequence encoding an N-terminal His-tag was added to the genes from Chromobacterium violaceum, Pseudomonas syringae, Rhodobacter sphaeroides, and Vibrio Fluvialis encoding the aminotransferases of SEQ ID NOs: 116 (GenBank Accession No. AAQ59697.1), 126 (GenBank Accession No. AAY39893.1), 127 (GenBank Accession No. ABA81135.1), and 128 (GenBank Accession No. AEA39183.1), respectively such that N-terminal HIS tagged aminotransferases could be produced. Each of the resulting modified genes was cloned into a pET21a expression vector under control of the T7 promoter and each expression vector was transformed into a BL21 [DE3] E. coli host. The resulting recombinant E. coli strains were cultivated at 37° C. in a 250 mL shake flask culture containing 50 mL LB media and antibiotic selection pressure, with shaking at 230 rpm. Each culture was induced overnight at 16° C. using 1 mM IPTG.
(§2) The pellet from each induced shake flask culture was harvested via centrifugation. Each pellet was resuspended and lysed via sonication. The cell debris was separated from the supernatant via centrifugation and the cell free extract was used immediately in enzyme activity assays.
Enzyme activity assays in the reverse direction (i.e., 7-aminoheptanoate to 7-oxoheptanoate) were performed in a buffer composed of a final concentration of 50 mM HEPES buffer (pH=7.5), 10 mM 7-aminoheptanoate, 10 mM pyruvate and 100 μM pyridoxyl 5′ phosphate. Each enzyme activity assay reaction was initiated by adding cell free extract of the aminotransferase gene product or the empty vector control to the assay buffer containing the 7-aminoheptanoate and incubated at 25° C. for 4 h, with shaking at 250 rpm. The formation of L-alanine from pyruvate was quantified via RP-HPLC.

A short description of test [2]: Aminotransferase activity, forward direction (7-oxoheptanoate to 7-aminoheptanoate), pyruvate formation by RP-HPLC. In kind it is biochemical. The settings on record: cell free extract, 10 mM substrate, 10 mM L-alanine, 25° C., 4 h, against empty vector control, FIG. 49. The protocol: as §1
The pellet from each induced shake flask culture was harvested via centrifugation. Each pellet was resuspended and lysed via sonication. […]
Enzyme activity in the forward direction (i.e., 7-oxoheptanoate to 7-aminoheptanoate) was confirmed for the aminotransferases of SEQ ID NO: 126 (GenBank Accession No. AAY39893.1), SEQ ID NO: 127 (GenBank Accession No. ABA81135.1), and SEQ ID NO: 128 (GenBank Accession No. AEA39183.1). […] The formation of pyruvate was quantified via RP-HPLC.

Test [3] in a line: Aminotransferase activity, heptane-1,7-diamine to 7-aminoheptanal, L-alanine formation by RP-HPLC. The settings on record: cell free extract, 10 mM substrate, 25° C., 4 h, against empty vector control, FIG. 50. In kind it is biochemical. The protocol: A sequence encoding an N-terminal His-tag was added to the Chromobacterium violaceum, Pseudomonas aeruginosa, Pseudomonas syringae, Rhodobacter sphaeroides, Escherichia coli, and Vibrio fluvialis genes encoding the aminotransferases of SEQ ID NOs: 116 (GenBank Accession No. AAQ59697.1), 119 (RefSeq Accession No. NP_417544.5), 125 (GenBank Accession No. AAGO8191.1), 126 (GenBank Accession No. AAY39893.1), 127 (GenBank Accession No. ABA81135.1), and 128 (GenBank Accession No. AEA39183.1), respectively such that N-terminal HIS tagged aminotransferases could be produced. The modified genes were cloned into a pET21a expression vector under the T7 promoter. Each expression vector was transformed into a BL21[DE3] E. coli host. Each resulting recombinant E. coli strain were cultivated at 37° C. in a 250 mL shake flask culture containing 50 mL LB media and antibiotic selection pressure, with shaking at 230 rpm. Each culture was induced overnight at 16° C. using 1 mM IPTG.
as §2
Enzyme activity assays in the reverse direction (i.e., heptane-1,7-diamine to 7-aminoheptanal) were performed in a buffer composed of a final concentration of 50 mM HEPES buffer (pH=7.5), 10 mM heptane-1,7-diamine, 10 mM pyruvate, and 100 μM pyridoxyl 5′ phosphate. Each enzyme activity assay reaction was initiated by adding cell free extract of the aminotransferase gene product or the empty vector control to the assay buffer containing the heptane-1,7-diamine and then incubated at 25° C. for 4 h, with shaking at 250 rpm. The formation of L-alanine was quantified via RP-HPLC.

Test [4] in a line: Aminotransferase activity, N7-acetyl-1,7-diaminoheptane to N7-acetyl-7-aminoheptanal, L-alanine formation by RP-HPLC. The settings on record: cell free extract, 10 mM substrate, 25° C., 4 h, against empty vector control, FIG. 51. In kind it is biochemical. The protocol:
The activity of the N-terminal His-tagged aminotransferases of SEQ ID NOs: 116 (GenBank Accession No. AAQ59697.1), 119 (RefSeq Accession No. NP_417544.5), 125 (GenBank Accession No. AAGO8191.1), 126 (GenBank Accession No. AAY39893.1), 127 (GenBank Accession No. ABA81135.1), and 128 (GenBank Accession No. AEA39183.1) (see Example 6) for converting N7-acetyl-1,7-diaminoheptane to N7-acetyl-7-aminoheptanal was assayed using a buffer composed of a final concentration of 50 mM HEPES buffer (pH=7.5), 10 mM N7-acetyl-1,7-diaminoheptane, 10 mM pyruvate and 100 μM pyridoxyl 5′ phosphate. Each enzyme activity assay reaction was initiated by adding a cell free extract of the aminotransferases or the empty vector control to the assay buffer containing the N7-acetyl-1,7-diaminoheptane then incubated at 25° C. for 4 h, with shaking at 250 rpm. The formation of L-alanine was quantified via RP-HPLC.

A short description of test [5]: In vivo aminotransferase activity screening, 7-aminoheptanoate by LC-MS. In kind it is cell-based, Escherichia coli. As to conditions: in vivo conversion of 7-oxoheptanoate to 7-aminoheptanoate, 120 aminotransferases screened. Put shortly:
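Aminotransferase library expressed in E. coli T7 Express lysY/Iq co-expressing sfp, CAR_Srot and BioC, grown overnight at 37° C in rich media with 0.4 mM IPTG and 1 g/L monomethyl heptanedioate, heptanedioate or no acid. Culture supernatants analysed by LC-MS for 7-aminoheptanoate or its monomethyl ester.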

B1: SEQ ID NO: 128: Vibrio fluvialis aminotransferase, positive control of the in vivo screen (protein, listed as Vibrio fluvialis)
chain: MNKPQSWEARAETYSLYGFTDMPSLHQRGTVVVTHGEGPYIVDVNGRRYLDANSGLWNMVAGFDHKGLIDAAKAQYERFPGYHAFFGRMSDQTVMLSEKLVEVSPFDSGRVFYTNSGSEANDTMVKMLWFLHAAEGKPQKRKILTRWNAYHGVTAVSASMTGKPYNSVFGLPLPGFVHLTCPHYWRYGEEGETEEQFVARLARELEETIQREGADTIAGFFAEPVMGAGGVIPPAKGYFQAILPILRKYDIPVISDEVICGFGRTGNTWGCVTYDFTPDAIISSKNLTAGFFPMGAVILGPELSKRLETAIEAIEEFPHGFTASGHPVGCAIALKAIDVVMNEGLAENVRRLAPRFEERLKHIAERPNIGEYRGIGFMWALEAVKDKASKTPFDGNLSVSERIANTCTDLGLICRPLGQSVVLCPPFILTEAQMDEMFDKLEKALDKVFAEVA
Take B1: in test [1], the “acceptance of 7-aminoheptanoate as substrate” value was “accepted 7-aminoheptanote as substrate”. For the same molecule, the “acceptance of 7-oxoheptanoate as substrate, forming 7-aminoheptanoate” value in test [2] is “accepted 7-oxoheptanoate as a substrate”. For the same molecule, the “acceptance of heptane-1,7-diamine as substrate, forming 7-aminoheptanal” value in test [3] is recorded as “accepted heptane-1,7-diamine as substrate”. The “acceptance of N7-acetyl-1,7-diaminoheptane as substrate, forming N7-acetyl-7-aminoheptanal” value in test [4] is reported as “accepted N7-acetyl-1,7-diaminoheptane as a substrate”. Also, the “7-aminoheptanoate yield compared to the positive control (F2XBU9)” value in test [5] is “higher 7-aminoheptanoate yields”.

(Values after patent publication US10801046B2, “Methods and materials for biosynthesizing multifunctional, multivariate molecules via carbon chain modification” (INVISTA NORTH AMERICA S.A.R.L., priority 2016, dated 2020).)
